# According to patent publication US10119122B2, “Differentiation and expansion of endothelial cells from pluripotent stem cells and the in vitro formation of vasculature like structures” (Academisch Ziekenhuis Leiden, priority 2013, dated 2018):
# Entries after “also recorded” stand apart in the source; their conditions may differ.
# How the values were obtained:
# Assay type in all cases: cell-based, human
# [1] = system: control iPSC-derived ECs co-cultured with control iPSC-derived pericytes/mesenchymal cells; experiment: 2D endothelial-pericyte co-culture sprouting assay, control ECs; conditions: for formation of vascular/endothelial sprouts: TGFβ3 1 ng/ml, compared to control condition
# Procedure: (§1) The endothelial capillary-like network formation assay was carried out as previously described but with major modifications (Evensen et al., 2013). These included using both ECs and pericytes derived from human iPSC lines. This is described in more detail elsewhere (Orlova et al., manuscript in preparation). ECs were labelled with the general cytoplasmic labeling dye (PKH-26). For the sprouting assay, 12,000 ECs derived from both control and diseased lines were plated with 50,000 control iPSC-derived pericytes/well on 0.1% gelatin coated 96-well plates in EGM-2 (Lonza, CC-3162). Next day and on the day 4 of the assay, medium was replaced with new EGM-2 media containing tested compounds as indicated in the figure legends. Endothelial-pericyte co-culture was terminated on day 7 of the assay each well immunofluorescently stained for quantification, as follows: co-cultures were fixed with the 4% paraformaldehyde (PFA), permeabilized with the 0.1% TX-100 and blocked with the normal goat serum (Dako). Endothelial sprouts were visualized with the mouse anti-CD31 (Dako, 1:200). In some experiment with the mouse blocking antibodies, rabbit anti-CD31 (Scbt, 1:200) was used instead. Pericytes were visualized with antibodies against SM22 (Sigma, 1:200). The endothelial network was imaged with the BD Pathway 855 system using the 4× or 10× objective and 2×2 (or 3×3) Montage mode. Total area covered by the endothelial sprouts was quantified with the protocol developed within cell image analysis software CellProfiller (Broad Institute). High magnification images were acquired with the SP5 confocal microscope, using 10× and 40× objectives.
# A two-dimensional co-culture system was first established in vitro consisting of control iPSC-derived ECs cultured with the control iPSC-derived mesenchymal cells (FIG. 10A). The protocol was optimized and adapted to the BD Pathway 855 imaging system, based on the protocol initially described for the co-culture of HUVECs and vascular SMCs (vSMCs) (Evensen et al., 2013). On day 7 of the co-culture, iPSC-derived EC had organized and formed spouts on the top mesenchymal cells, as evidenced by immunofluorescent staining with the EC-specific CD31 and SMC-specific SM22 markers (FIG. 10B).
# (§2) Endothelial cell-pericyte co-culture was performed as described previously (Evensen et al., 2013) but using conditions optimized for iPSC-derived ECs and pericytes as described (Orlova et al., manuscript in preparation). In brief, 12,000 and 50,000 iPSC-derived ECs and pericytes were plated, respectively, in each well of a 96-well plate. Next day the co-cultures were refreshed with the specific treatment conditions indicated. The co-culture was fixed on day 7, and EC sprouts stained with anti-CD31 antibody (1:200, Dako) (as described in Orlova et al., manuscript in preparation). Pericytes were visualized with the anti-SM22 antibody (1:200, Abcam). The BD Pathway 855 system was used for automatic image acquisition, with the 4× objective and 2×2 (or in some cases 3×3) montage mode. CellProfiller (Broad Institute) custom pipeline was used for the image quantification.
# [2] = system: HHT1-iPSC-derived ECs co-cultured with control iPSC-derived pericytes; experiment: 2D endothelial-pericyte co-culture sprouting assay, HHT1 patient ECs; conditions: day 7, HHT1-iPSC ECs; for formation of endothelial sprouts: TGFβ3 1 ng/ml; for formation of the sprouting network: BMP9 1 ng/ml
# Procedure: as §1
# It was hypothesized that this system might be useful for distinguishing […] versus paracrine effects of endoglin deficiency in HHT1-iPSCs-derived ECs. Therefore, ECs from HHT-iPSC lines in the co-culture assay combined with the pericytes derived from the control iPSCs were examined. Little difference was observed between ECs from HHT1 and control iPSCs in co-culture. ECs from the patient harboring the 1083delAA and IVS 5+2 (T>C) mutation similar endothelial sprout formation as the controls (FIGS. 11A and 11B).
# as §2
# [3] = system: iPSC-derived pericytes/mesenchymal cells; experiment: Contractile smooth muscle marker expression in iPSC-derived pericytes/mesenchymal cells; conditions: stimulation with TGFb (FIG. 16)
# Procedure: Our differentiation system facilitates simultaneous derivation and expansion of pericytes and ECs from iPSC lines. […] Thus, a renewable source of pericytes/SMCs was created for co-culture with ECs that would in principle be able to simulate endothelial-pericyte interaction in humans.
# iPSC-derived pericytes/mesenchymal cells were derived from the CD31− fraction emerging during the endothelial differentiation protocol. CD31− cells were plated on gelatin coated plates in EGM-2 media (Lonza). After 4 days medium was replaced by DMEM+10% FBS supplemented with TGFβ3 (2 ng/ml, Peprotech) and PDGF-BB (4 ng/ml, Peprotech). iPSC-derived pericytes were routinely maintained on gelatin-coated plates in DMEM+10% FBS. Cells were characterized for the expression of pericyte and mesenchymal cell-specific markers by flow cytometry and immunofluorescent staining as describe above.
# ECs and pericytes were cultured as described above on gelatin coated coverslips. Cells were fixed with 4% PFA, permeabilized and stained with the following antibodies as described (Orlova et al., Manuscript in preparation): anti-Ve-Cadherin (1:200, CellSignaling), anti-vWF (1:200, Dako), anti-CD31 (1:200, Dako), anti-SM22a (1:200, Abcam), anti-SMA (1:400, Sigma), anti-CNN1 (1:200, Sigma).
# hPSCs = experiment: Monolayer endothelial differentiation of hPSCs in defined medium, flow cytometry at day 10; conditions: additional Activin 25 ng/ml on days 0-3 (BVAC vs BVC); range of iPSC lines; data not shown
# Text: hiPSC lines were generated from Fib or BOECs using conditional lentiviral vectors containing the four transcription factors oct4, c-myc, Klf4 and Sox2, and characterized as described previously (Dambrot et al., 2013; Freund et al., 2008; Orlova et al., manuscript in preparation). hiPSCs and hESC (line HES-NL4; (van de Stolpe et al., 2005)) were routinely maintained on growth factor reduced MATRIGEL®-(BD, 354230) coated plates in mTeSR media (StemCell Technologies, 05850) and passaged mechanically. Differentiation was induced three days after passaging colonies by replacing mTeSR medium with the differentiation media based on BPEL (without PVA) (Ng et al., 2008) with timed addition of the following growth factors: 25 ng/ml ActivinA (Miltenyi, 130-095-547), 30 ng/ml BMP4 (Miltenyi, 130-095-549), VEGF165 (R&D Systems, 293-VE) and small molecule inhibitor CHIR99021 (Tocris, 4423). At day 3 and day 7 of differentiation, the media was refreshed with BPEL containing VEGF and 5 μM SB43152 (Tocris, 1614) only.
# Cells were dissociated with TrypLE Select and washed once with the FACs buffer with the 10% FBS, followed by the single wash with the FACs buffer. […] In some experiment samples were analyzed with the MACSQuant VYB (Miltenyi). […]
molecule,measurement,setting,value
"C[C@H](NC(=O)Cc1cc(F)cc(F)c1)C(=O)N[C@H](C(=O)OC(C)(C)C)c1ccccc1 [DAPT, reference compound]",number of tip cells,"[1]; 2D co-culture system with DAPT, 46 without DAPT",64
"c1ccc2c(-c3cnn4cc(-c5ccc(N6CCNCC6)cc5)cnc34)ccnc2c1 [LDN1931189, reference compound]",sprout formation,"[1]; LDN1931189, inhibition of ALK1/ALK2/ALK3 pathway, day 7",no effect on sprout formation
"TGFβ3: growth factor TGFβ3 (Peprotech), transforming growth factor β ligand (protein, UniProt P10600 301-412, looked up, Transforming growth factor beta-3, growth factor TGFβ3 (Peprotech), transforming growth factor β ligand) Transforming growth factor …: ALDTNYCFRNLEENCCVRPLYIDFRQDLGWKWVHEPKGYYANFCSGPCPYLRSADTTHSTVLGLYNTLNPEASASPCCVPQDLEPLTILYYVGRTPKVEQLSNMVVKSCKCS",formation of endothelial sprouts,[2],inhibits sprout formation in all lines
same,formation of endothelial sprouts,[2]; listed as TGFβ,inhibited formation of the endothelial sprouts; also recorded: inhibited endothelial network formation
same,formation of vascular/endothelial sprouts,[1]; day 7,dramatic reduction in the formation of the vascular sprouts; also recorded: inhibits sprout formation in all lines
same,formation of vascular/endothelial sprouts,"[1]; day 7, listed as TGFβ",inhibited endothelial network formation
same,up-regulation of vSMC contractile markers,[3],up-regulation of vSMC markers
"TRC105: anti-endoglin blocking antibody, in clinical trial as an anti-tumor therapy (antibody, chains of the INN, looked up, V domains shown) VH: EVKLEESGGGLVQPGGSMKLSCAASGFTFSDAWMDWVRQSPEKGLEWVAEIRSKASNHATYYAESVKGRFTISRDDSKSSVYLQMNSLRAEDTGIYYCTRWRRFFDSWGQGTTLTVSS VL: QIVLSQSPAILSASPGEKVTMTCRASSSVSYMHWYQQKPGSSPKPWIYATSNLASGVPVRFSGSGSGTSYSLTISRVEAEDAATYYCQQWSSNPLTFGAGTKLELK",formation of sprouts by ECs,"[1]; TRC105 120 μg/ml, day 7",reduction in the formation of the sprouts; also recorded: significantly reduced sprouting
same,surface area covered by ECs,"[1]; TRC105, co-culture assay",significantly reduced
"BMP9: BMP9 (R&D), ligand for signaling in ECs, circulating vascular quiescence factor (protein, UniProt Q9UK05 320-429, looked up) Growth/differentiation factor …: SAGAGSHCQKTSLRVNFEDIGWDSWIIAPKEYEAYECKGGCFFPLADDVTPTKHAIVQTLVHLKFPTKVGKACCVPTKLSPISVLYKDDMGVPTLKYHYEGMSVAECGCR",formation of the sprouting network,[2],selective inhibitory effect in HHT1-iPSC-derived ECs only
same,formation of the sprouting network,[2]; listed as BMP-9,significant inhibition
same,formation of the sprouting network,"[1]; BMP9 1 ng/ml, day 7, control iPSC ECs, listed as BMP-9",no effect at all
"Activin: growth factor ActivinA (Miltenyi), 25 ng/ml in mesoderm induction medium (protein, UniProt P08476 311-426, looked up, Inhibin beta A chain) Inhibin beta A chain: GLECDGKVNICCKKQFFVSFKDIGWNDWIIAPSGYHANYCEGECPSHIAGTSGSSLSFHSTVINHYRMRGHSPFANLKSCCVPTKLRPMSMLYYDDGQNIIKKDIQNMIVEECGCS",robustness and reproducibility of differentiation,hPSCs,more robust and reproducible differentiation
